Laboratory results: publication PMC8523659 (Scientific Reports, 2021)
Where a chain is given by its changes, count along the chain named. Numbers in names are those of the source.

Legend:
human serum albumin [1] = target: T1, human serum albumin (Homo sapiens, UniProt P02768); experiment: SPR; Biacore T200; HSA immobilised on CM5 chip by amine coupling (~1000 RU); increasing concentrations of antibodies injected at 30 μl/min; PBS with 0.05% Tween-20; global fit, 1:1 Langmuir model; details: both partners purified
T1 construct: human serum albumin (HSA), purchased from Sigma-Aldrich Japan; dissolved in phosphate buffer and dialysed; also called HSA; source: bought: Sigma-Aldrich Japan

human serum albumin [2] = target: T1, human serum albumin; experiment: as above; details: both partners purified; remark: listed apart in the source

B1: single-domain VHH antibody Z18 (VHH)
VHH: QVQLVESGGGLVQAGDSLRLSCAASGRTFSGYAMGWFRQAPGKEREFVARINWSGTLTYYADSVKGRFTGSRDNAKNTVYLQMNSLKPEDTAVYYCAQRGDSGSNYDPSGYSYWGQGTQVTVSS
notes: pRA2 vector with N-terminal pelB signal peptide; also called wild-type Z18; source: E. coli BL21 (DE3), purified (Ni-NTA, SEC); not shown: hexa-histidine, C-terminal, kept
- Kd (human serum albumin [1]): 175 nM
- Kd (human serum albumin [2]): 334 nM
- koff (human serum albumin [2]): 0.259 s⁻¹
- kon (human serum albumin [2]): 774000 M⁻¹ s⁻¹

B2: Z18-I56V (VHH)
VHH: B1 VHH with I51V
notes: IMGT numbering; the methods describe vector and expression for Z18 and Z26; source: E. coli BL21 (DE3), purified (Ni-NTA, SEC)
- Kd (human serum albumin [2]): 296 nM
- koff (human serum albumin [2]): 0.22 s⁻¹
- kon (human serum albumin [2]): 741000 M⁻¹ s⁻¹

B3: Z18-G78A (VHH)
VHH: B1 VHH with G70A
notes: as for B2
- Kd (human serum albumin [2]): 7110 nM
- koff (human serum albumin [2]): 1.1 s⁻¹
- kon (human serum albumin [2]): 155000 M⁻¹ s⁻¹

B4: Z18-R50L/G78A/S133R (VHH)
VHH: B1 VHH with R45L, G70A, S112R
notes: as for B2
- Kd (human serum albumin [2]): 447 nM
- koff (human serum albumin [2]): 0.785 s⁻¹
- kon (human serum albumin [2]): 1.76e+06 M⁻¹ s⁻¹

B5: Z18-G32D (VHH)
VHH: B1 VHH with G31D
notes: as for B2
- Kd (human serum albumin [2]): 172 nM
- koff (human serum albumin [2]): 0.12 s⁻¹
- kon (human serum albumin [2]): 696000 M⁻¹ s⁻¹

B6: single-domain VHH antibody Z26 (VHH)
VHH: B1 VHH with V2L, G31D, R45L, I51V, T56L, G70A, N77S, Y106F, S112R
notes: differs from Z18 at nine residues; pRA2 vector with N-terminal pelB signal peptide; also called wild-type Z26; source: E. coli BL21 (DE3), purified (Ni-NTA, SEC); not shown: hexa-histidine, C-terminal, kept
- Kd (human serum albumin [2]): 0.54 nM
- koff (human serum albumin [2]): 0.000816 s⁻¹
- kon (human serum albumin [2]): 1.51e+06 M⁻¹ s⁻¹

B7: Z18-Y114F (VHH)
VHH: B1 VHH with Y106F
notes: as for B2
- Kd (human serum albumin [2]): 12.9 nM
- koff (human serum albumin [2]): 0.096 s⁻¹
- kon (human serum albumin [2]): 7.45e+06 M⁻¹ s⁻¹

B8: Z18-N85S (VHH)
VHH: B1 VHH with N77S
notes: as for B2
- Kd (human serum albumin [2]): 344 nM
- koff (human serum albumin [2]): 0.238 s⁻¹
- kon (human serum albumin [2]): 692000 M⁻¹ s⁻¹

B9: Z18-V2L (VHH)
VHH: B1 VHH with V2L
notes: as for B2
- Kd (human serum albumin [2]): 366 nM
- koff (human serum albumin [2]): 0.276 s⁻¹
- kon (human serum albumin [2]): 754000 M⁻¹ s⁻¹

B10: Z18-S133R (VHH)
VHH: B1 VHH with S112R
notes: as for B2
- Kd (human serum albumin [2]): 67.2 nM
- koff (human serum albumin [2]): 0.078 s⁻¹
- kon (human serum albumin [2]): 1.16e+06 M⁻¹ s⁻¹

B11: Z18-R50L (VHH)
VHH: B1 VHH with R45L
notes: as for B2
- Kd (human serum albumin [2]): 412 nM
- koff (human serum albumin [2]): 0.284 s⁻¹
- kon (human serum albumin [2]): 689000 M⁻¹ s⁻¹

B12: Z18-T61L (VHH)
VHH: B1 VHH with T56L
notes: as for B2
- Kd (human serum albumin [2]): 8.63 nM
- koff (human serum albumin [2]): 0.037 s⁻¹
- kon (human serum albumin [2]): 4.33e+06 M⁻¹ s⁻¹

B13: Z18-G32D/R50L/G78A/S133R (VHH)
VHH: B1 VHH with G31D, R45L, G70A, S112R
notes: as for B2
- Kd (human serum albumin [2]): 797 nM
- koff (human serum albumin [2]): 0.412 s⁻¹
- kon (human serum albumin [2]): 516000 M⁻¹ s⁻¹
